Measured values published in patent publication US9206239B2, “Treatment of cancers with immunostimulatory HIV Tat derivative polypeptides” (PIN Pharma, Inc., priority 2009, dated 2015).
“Also recorded” adds a separate entry of the source.

What was measured:
[1] = Toxicity observation in treated mice; assay type: in vivo; details: SC or IV administration of 40 ng, multiple trials and dosing schedules
TS/A breast cancer cells = test: TS/A breast carcinoma model; assay type: in vivo, mice; details: for primary anti-cancer difference vs control: p<0.01
Description: (§1) 4T1 cells, a 6-thioguanine-resistant cell line derived from a BALB/c spontaneous mammary carcinoma was obtained from ATCC; TS/A, a murine adenocarcinoma cell line was provided by Dr. Sandra Demaria (Demaria S. et al. Clin Cancer Res. 11:728-34, 2005); and SM1, the BALB/C-derived mammary carcinoma was kindly was provided by Dr. James Allison, University of California, Berkeley. All tumor cell lines were cultured in DMEM, supplemented with 2 mM L-glutamine, 10 mM HEPES, 150 units/ml penicillin/streptomycin, 10% heat-inactivated FCS (Invitrogen), 50 μM 2-mercaptoethanol (Sigma), and 50 mg/L gentamicin (Lanza).
(§2) BALB/c were injected (SC) with 1×10^4 4T1, 1×10^5 TS/A or 2×10^5 SM1 cells, respectively, in the left mammary pad on day 0. Immunotherapy was performed by directly injecting a Tat derivative into the right flank at 0, 7, 12, and 17 days after establishment of tumors. The control group received PBS injection. […] Tumor burden (tumor volume) was measured and recorded three times weekly. Animals were sacrificed when tumors reached a volume of 15 mm in diameter and the tumors harvested and weighed.

4T1 breast tumors = test: Kaplan-Meier survival of mice bearing 4T1 breast tumors; assay type: in vivo, BALB/c mice; details: for survival: day 47
Description: as §2
Data were statistically analyzed using Student's t-test (Graph Pad Prism version 5; GraphPad). Data from animal survival experiments were statistically analyzed using log-rank test (Graph Pad Prism version 5).
To determine whether Nani-P2 treatment could extend survival in addition to shrinking primary tumors in mice, treatment protocols using various dosing schedules and routes (SC, IV or IT) of administration of 40 ng Nani-P2 were performed. Cohorts of ten mice per group were followed for length of survival, as assessed by use of the Kaplan-Meier product limit method. As per Columbia University Medical Center Animal Facility regulations, each mouse was euthanized at a mean tumor diameter of approximately 15 mm, or earlier if the mouse became moribund, making one of these two outcomes the defining criteria for fatality.

4T1 breast tumor cells [2] = test: 4T1 breast tumor growth in BALB/c mice; assay type: in vivo
Excerpt: Female BALB/c mice 6 to 8 weeks old were purchased from the Jackson Laboratory (Bar Harbor, […].). Mice were acclimated for at least 1 week before use. Mice were kept in pathogen-free conditions at the Animal Maintenance Facility of the Columbia University of Medical Center and all experiments were approved by the Institutional Animal Care and Use Committee of Columbia University of Medical Center.
as §1, §2
The therapeutic effect of systemic administration of synthetic, Tat-derived compositions in murine models of breast cancer was investigated. To compare the relative protection conferred by a small panel of different derivatives against primary breast tumor growth, female BALB/c mice were injected with 1×10^4 4T1 breast tumor cells SC into the mammary pad, and then treated with 400 ng partially-purified Tat derivatives at day 0, 7, 14 and 21 (SC injection in PBS) into the draining axillary lymph nodes.

4T1 breast tumor cells [3] = test: 4T1 breast tumor growth in BALB/c mice; assay type: in vivo; remark: listed apart in the source
4T1 lung metastases = test: Detection of 4T1 lung metastases; assay type: in vivo, BALB/c mice; details: treated IV, established 4T1 tumors; p<0.01 vs PBS
Excerpt: Lungs were examined for 4T1 metastases as previously described (Pulaski B. et al. Cancer Res. 60:2710-2715, 2000). Primary 4T1 tumors that have been established for 2-3 weeks in BALB/c mice metastasize to the lungs in a very large majority of animals. Briefly, mice were sacrificed according to IACUC guidelines established at the start of the trials, the lungs removed, and tumor nodules on the surface of the lungs were enumerated with the naked eye by two independent investigators blinded to the treatment protocols.
To further investigate the efficacy of Nani-P2 against established and metastatic breast cancer, 4T1 cells were injected SC in the abdominal mammary gland of mice and treatment was delayed until such time that the tumors had metastasized to the lungs and averaged 3.5 mm in size (FIG. 8A, day 13), corresponding to a 2.4 cm or stage T2 human breast tumor. Mice were followed for tumor growth (FIG. 8A) and lung metastases (FIG. 8B). […] This corresponded to a less aggressive appearance of primary tumor, as well as lung metastases that were on average much smaller in size (FIG. 8B).

Human monocytes = test: CD86 expression on human monocytes cultured with Tat derivative; assay type: cell-based; details: human monocytes cultured 24-28 hours; compared with ISS (TLR) or LPS
Description: Human monocytes were cultured for 24-28 hours with a Tat derivative (Nani-P2), an immunostimulatory sequence (ISS) of a toll-like receptor (TLR) (FIG. 1) or lipopolysaccharide (LPS) (FIG. 2) and the cells were then washed and stained with fluorescent-labeled CD86.

B1: Nani-P2: HIV Tat derivative polypeptide, SEQ ID NO: 3; derivatized Tat amino terminus from an African Green Monkey variant SIV (protein)
chain: MDPKGEEDQDVSHQDLIKQYRKPRTACNNCYCKKCCFHCYACFLRKGLGITYHAFRTRRKKIASADRIPVPQQSISIRGRDSQTTQESQKKVEEQAKANLRISRKNLGDETRGPVGAGN
modifications: Nani-P2 modified HIV Tat sequence
notes: derivatized Tat amino terminus from an African Green Monkey variant SIV
toxicity [1]: no toxicity was observed | suppression of growth (TS/A breast cancer cells; 0.4 ng SC): ~50% | primary anti-cancer difference vs control (TS/A breast cancer cells; 40 ng SC): highly significant | total remission rate (TS/A breast cancer cells; at 30 days): 40% | primary anti-cancer difference vs control (TS/A breast cancer cells; lowest dose (0.4 ng SC)): highly significant | survival, intratumoral administration (4T1 breast tumors; IT, 40 ng weekly x3, tumors established fourteen days): slightly inferior to SC administration | survival (4T1 breast tumors; IV, 40 ng weekly x3, tumors established fourteen days, p<0.005): 60% | survival (4T1 breast tumors; SC, 40 ng weekly x3, tumors established fourteen days, p<0.05): 20% | treated mice still alive (4T1 breast tumors; day 48, 40 ng SC, 4 doses over 21 days from day 0, p<0.001): 35% | duration of tumor growth inhibition and survival benefits past the last dosing (4T1 breast tumors; established 4T1 tumors, treated intravenously): at least 36 days | tumor burden compared to control mice receiving PBS (4T1 breast tumor cells [2]; 400 ng partially-purified derivative SC day 0, 7, 14, 21, apparent from day 15 (p<0.05)): significantly reduced tumor burden | decrease of tumor burden on average (4T1 breast tumor cells [2]; SC therapy initiated on day 0 after tumor cell injection): 53% | difference in primary tumor burden between Nani-P2 and Nani-P1-treated tumors (4T1 breast tumor cells [2]; day 21 (final dosing), 400 ng SC, p<0.01): 18 mm^3 | anti-tumor efficacy on increasing the dose (4T1 breast tumor cells [2]; dose increased to 400 ng and 2 μg (data not shown)): no further anti-tumor efficacy | difference in mean tumor volume vs control group (4T1 breast tumor cells [3]; 4 ng or 40 ng per mouse, four times over 21 days): highly significant | primary tumor burden vs PBS control, established tumors (4T1 breast tumor cells [3]; 40 ng IV weekly for three weeks from day 14, trial 50 days, p<0.01): statistically significant benefit in primary tumor suppression; also recorded: highly significant | animals with complete remission, disease-free (4T1 breast tumor cells [3]; 40 ng IV weekly x3 from day 14, at 50 days): 1/10 and One of 10 | mice with regression of tumor at the initial treatment (4T1 breast tumor cells [3]; 40 ng IV, initial treatment on day 14): 7/10 | decrease of tumor burden on average at maximal effect (4T1 breast tumor cells [3]; SC therapy begun on day 13, tumors about 5 mm in diameter): 52% | breast tumor growth inhibitory effect on 4T1 tumors (4T1 breast tumor cells [3]; highly-purified, SC, 0.4 ng to 40 ng per dose): dose-dependent | average number of grossly visible tumor nodules in the lungs (4T1 lung metastases): seven | expression of CD86 (Human monocytes): higher expression of CD86 than either ISS (TLR) or LPS
